One assay deals with T1, GLP-1R L144A (Homo sapiens).
T1 chain: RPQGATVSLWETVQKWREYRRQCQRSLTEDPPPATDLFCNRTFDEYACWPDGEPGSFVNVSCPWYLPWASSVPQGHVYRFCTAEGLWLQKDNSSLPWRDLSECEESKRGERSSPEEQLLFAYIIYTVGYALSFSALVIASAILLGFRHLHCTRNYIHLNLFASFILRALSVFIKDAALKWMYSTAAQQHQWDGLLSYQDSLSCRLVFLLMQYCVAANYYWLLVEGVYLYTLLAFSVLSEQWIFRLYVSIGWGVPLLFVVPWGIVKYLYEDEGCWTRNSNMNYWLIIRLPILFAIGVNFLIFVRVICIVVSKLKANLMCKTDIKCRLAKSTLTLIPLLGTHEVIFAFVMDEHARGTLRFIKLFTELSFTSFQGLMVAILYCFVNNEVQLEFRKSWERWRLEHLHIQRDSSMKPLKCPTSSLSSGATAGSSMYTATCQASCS

The target of another assay is T2, GLP-1R Q210A (Homo sapiens).
T2 chain: T1 chain with A121L, Q187A

A further assay concerns the target T3, GLP-1R L142A (Homo sapiens).
T3 chain: T1 chain with L119A, A121L

Another assay has as its target T4, GLP-1R Y145A (Homo sapiens).
T4 chain: T1 chain with A121L, Y122A

A further assay addresses T5, GLP-1R M204A (Homo sapiens).
T5 chain: T1 chain with A121L, M181A

The text below walks through data of article PMC8748714 (2022).

Changes are numbered by the printed parent chain. No end group written: not given here.

Take HSQGTFTSDYSKYLDSRRAQDFVQWLMNTKRNRNNIA [oxyntomodulin]: the IC50 turned out to be 51.3 nM with GLP-1R L144A; 66.1 nM in the assay with GLP-1R Q210A; 81.3 nM with GLP-1R L142A; 24.5 nM with GLP-1R Y145A; 741 nM in the assay with GLP-1R M204A.
On to HAEGTFTSDVSSYLEGQAAKEFIAWLVKGR (not fully specified (C-terminus)) [glucagon-like peptide-1], for which the figures for the IC50 with GLP-1R L144A, in the assay with GLP-1R Y145A and in the assay with GLP-1R M204A were 11 nM, 6.17 nM and 79.4 nM, respectively.

As usually defined, the IC50 is the point on the concentration scale where inhibition reaches its midpoint. High values mean lower potency, low ones higher potency.
